Experimental data reported in the Immune Epitope Database (IEDB).

What was measured:
Assay in all cases: IEDB peptide-MHC binding, purified MHC/competitive/radioactivity; filed as Kd, often an IC50 or EC50 that approximates it; ≥ and ≤ were set here for values at or beyond the usual limits of such assays
Conditions in all cases: source organism: Plasmodium falciparum 3D7
[1] = target: HLA-A*03:01
[2] = target: HLA-A*11:01
[3] = target: HLA-A*31:01
[4] = target: HLA-A*33:01
[5] = target: HLA-A*68:01

## YQNFQNADK
[1]
  Kd: 2710 nM
[2]
  Kd: 177 nM
[3]
  Kd: ≥ 10000 nM
[4]
  Kd: ≥ 10000 nM
[5]
  Kd: ≥ 10000 nM

## LQMMNVNLQK
[1]
  Kd: 25 nM
[2]
  Kd: 7.2 nM
[3]
  Kd: 435 nM
[4]
  Kd: 1110 nM
[5]
  Kd: 320 nM

## GTMYILLKK
[1]
  Kd: 2.2 nM
[2]
  Kd: 1.2 nM
[3]
  Kd: 29 nM
[4]
  Kd: 8450 nM
[5]
  Kd: 3.1 nM

## MQSSFFMNR
[2]
  Kd: 1.1 nM
[3]
  Kd: 29 nM
[4]
  Kd: 75 nM
[5]
  Kd: 3.8 nM

## IFISFYLINK
[1]
  Kd: 1990 nM
[2]
  Kd: 1060 nM
[3]
  Kd: 462 nM
[4]
  Kd: 394 nM
[5]
  Kd: 363 nM

## TTRYKYLNK
[1]
  Kd: 117 nM
[2]
  Kd: 848 nM
[3]
  Kd: 416 nM
[4]
  Kd: 652 nM
[5]
  Kd: 2560 nM

## EQRLPLLPK
[1]
  Kd: 1090 nM
[2]
  Kd: 765 nM
[3]
  Kd: 423 nM
[4]
  Kd: 987 nM
[5]
  Kd: 1910 nM

## ALERLLSLK
[1]
  Kd: 233 nM
[2]
  Kd: 369 nM
[3]
  Kd: 3430 nM
[4]
  Kd: ≥ 10000 nM
[5]
  Kd: ≥ 10000 nM

## LTNHLINTPK
[1]
  Kd: 11 nM
[2]
  Kd: 5.9 nM
[3]
  Kd: 62 nM
[4]
  Kd: 373 nM
[5]
  Kd: 10 nM

## SSPLFNNFYK
[1]
  Kd: 100 nM
[2]
  Kd: 0.74 nM
[3]
  Kd: 1610 nM
[4]
  Kd: 1730 nM
[5]
  Kd: 6.3 nM

## KILIKIPVTK
[2]
  Kd: 60 nM
[3]
  Kd: 1660 nM
[4]
  Kd: ≥ 10000 nM
[5]
  Kd: ≥ 10000 nM

## YLFNQHIKK
[1]
  Kd: 14 nM
[2]
  Kd: 7.8 nM
[3]
  Kd: 4920 nM
[4]
  Kd: 7970 nM
[5]
  Kd: 14 nM

## KINSNFLLK
[1]
  Kd: 17 nM
[2]
  Kd: 6.4 nM
[3]
  Kd: 68 nM
[4]
  Kd: ≥ 10000 nM
[5]
  Kd: 2740 nM

## SQVSNSDSYK
[1]
  Kd: 1660 nM
[2]
  Kd: 83 nM
[3]
  Kd: ≥ 10000 nM
[4]
  Kd: ≥ 10000 nM
[5]
  Kd: 1380 nM

## VVCSMEYKK
[1]
  Kd: 443 nM
[2]
  Kd: 54 nM
[3]
  Kd: 891 nM
[4]
  Kd: ≥ 10000 nM
[5]
  Kd: 167 nM

## ALKISQLQK
[1]
  Kd: 15 nM
[2]
  Kd: 96 nM
[3]
  Kd: 3200 nM
[4]
  Kd: ≥ 10000 nM
[5]
  Kd: ≥ 10000 nM

## SISGKYDIK
[1]
  Kd: 2090 nM
[2]
  Kd: 50 nM
[3]
  Kd: ≥ 10000 nM
[4]
  Kd: ≥ 10000 nM
[5]
  Kd: 1740 nM

## PVVCSMEYK
[1]
  Kd: 1940 nM
[2]
  Kd: 80 nM
[3]
  Kd: ≥ 10000 nM
[4]
  Kd: ≥ 10000 nM
[5]
  Kd: 414 nM

## ILCIEGEQK
[1]
  Kd: 1400 nM
[2]
  Kd: 641 nM
[3]
  Kd: 7530 nM
[4]
  Kd: ≥ 10000 nM
[5]
  Kd: 526 nM

## AVSEIQNNK
[1]
  Kd: 25 nM
[2]
  Kd: 11 nM
[3]
  Kd: 1430 nM
[4]
  Kd: ≥ 10000 nM
[5]
  Kd: 14 nM

## TFLESSFDIK
[1]
  Kd: ≥ 10000 nM
[2]
  Kd: 2510 nM
[3]
  Kd: ≥ 10000 nM
[4]
  Kd: ≥ 10000 nM
[5]
  Kd: ≥ 10000 nM

## AFLESQSMNK
[1]
  Kd: 3060 nM
[2]
  Kd: 1090 nM
[3]
  Kd: 9890 nM
[4]
  Kd: ≥ 10000 nM
[5]
  Kd: ≥ 10000 nM

## IFLRFIPDK
[1]
  Kd: 2440 nM
[2]
  Kd: 1280 nM
[3]
  Kd: 1640 nM
[4]
  Kd: 1310 nM
[5]
  Kd: ≥ 10000 nM

## ELFDKDTFFK
[1]
  Kd: 144 nM
[3]
  Kd: 3680 nM
[4]
  Kd: 13 nM
[5]
  Kd: 3.6 nM

## IALLIIPPK
[1]
  Kd: 1240 nM
[2]
  Kd: 108 nM
[3]
  Kd: 2930 nM
[4]
  Kd: 1400 nM
[5]
  Kd: 1960 nM

## FSYDLRLNK
[1]
  Kd: 29 nM
[2]
  Kd: 4.9 nM
[3]
  Kd: 461 nM
[4]
  Kd: 1260 nM
[5]
  Kd: 15 nM

## QQNQESKIMK
[1]
  Kd: 3470 nM
[2]
  Kd: 77 nM
[3]
  Kd: ≥ 10000 nM
[4]
  Kd: ≥ 10000 nM
[5]
  Kd: ≥ 10000 nM

## ALERLLSLKK
[1]
  Kd: 147 nM
[2]
  Kd: 822 nM
[3]
  Kd: ≥ 10000 nM
[4]
  Kd: ≥ 10000 nM
[5]
  Kd: ≥ 10000 nM

## KSMLKELIK
[1]
  Kd: 189 nM
[2]
  Kd: 151 nM
[3]
  Kd: 450 nM
[4]
  Kd: ≥ 10000 nM
[5]
  Kd: ≥ 10000 nM

## RLPLLPKTWK
[1]
  Kd: 11 nM
[3]
  Kd: 340 nM
[4]
  Kd: ≥ 10000 nM
[5]
  Kd: 2890 nM

## HLNIPIGFK
[1]
  Kd: 2.3 nM
[2]
  Kd: 1.3 nM
[3]
  Kd: 183 nM
[5]
  Kd: 2.8 nM
